According to paper PMC6340114, “The kinetic characteristics of human and trypanosomatid phosphofructokinases for the reverse reaction” (Biochemical Journal, 2018):

Experiments:
[1] = target: Trypanosoma cruzi phosphofructokinase (T. cruzi (strain CL Brener)); assay: SEC; preparative gel filtration of IMAC eluate on HiPrep Sephacryl S-200 16/60; 20 mM TEA, 5 mM MgCl2, 50 mM KCl, 10% glycerol, pH 7.4; tetrameric fractions collected
[2] = target: the molecule itself; assay: SEC; preparative size exclusion of IMAC eluate on HiPrep Sephacryl S300 16/600; 50 mM TEA, 500 mM KCl, 5 mM MgCl2, 1 mM TCEP, 1 mM ATP/F6P, 10% glycerol, pH 7.4; fractions corresponding to the tetramer (340 kDa) pooled
[3] = target: the molecule itself; assay: SEC; preparative gel filtration of IMAC eluate on HiPrep Sephacryl S-200 16/60; 20 mM TEA, 5 mM MgCl2, 50 mM KCl, 10% glycerol, pH 7.4; tetrameric fractions collected
[4] = target: the molecule itself; assay: SEC; preparative size exclusion of IMAC eluate on Superose 6 10/300; 50 mM TEA, 500 mM KCl, 5 mM MgCl2, 1 mM TCEP, 1 mM ATP/F6P, 10% glycerol, pH 8; fractions corresponding to the tetramer (340 kDa) pooled

For “Trypanosoma cruzi phosphofructokinase (enzyme)”, the stoichiometry N [1] was 4.

B1: human phosphofructokinase isoform PFK-M (enzyme, UniProt P08237 1-780, looked up)
chain: MTHEEHHAAKTLGIGKAIAVLTSGGDAQGMNAAVRAVVRVGIFTGARVFFVHEGYQGLVDGGDHIKEATWESVSMMLQLGGTVIGSARCKDFREREGRLRAAYNLVKRGITNLCVIGGDGSLTGADTFRSEWSDLLSDLQKAGKITDEEATKSSYLNIVGLVGSIDNDFCGTDMTIGTDSALHRIMEIVDAITTTAQSHQRTFVLEVMGRHCGYLALVTSLSCGADWVFIPECPPDDDWEEHLCRRLSETRTRGSRLNIIIVAEGAIDKNGKPITSEDIKNLVVKRLGYDTRVTVLGHVQRGGTPSAFDRILGSRMGVEAVMALLEGTPDTPACVVSLSGNQAVRLPLMECVQVTKDVTKAMDEKKFDEALKLRGRSFMNNWEVYKLLAHVRPPVSKSGSHTVAVMNVGAPAAGMNAAVRSTVRIGLIQGNRVLVVHDGFEGLAKGQIEEAGWSYVGGWTGQGGSKLGTKRTLPKKSFEQISANITKFNIQGLVIIGGFEAYTGGLELMEGRKQFDELCIPFVVIPATVSNNVPGSDFSVGADTALNTICTTCDRIKQSAAGTKRRVFIIETMGGYCGYLATMAGLAAGADAAYIFEEPFTIRDLQANVEHLVQKMKTTVKRGLVLRNEKCNENYTTDFIFNLYSEEGKGIFDSRKNVLGHMQQGGSPTPFDRNFATKMGAKAMNWMSGKIKESYRNGRIFANTPDSGCVLGMRKRALVFQPVAELKDQTDFEHRIPKEQWWLKLRPILKILAKYEIDLDTSDHAHLEHITRKRSGEAAV
notes: human ATP-dependent phosphofructokinase, muscle type (PFK-M1), yeast codon optimised cDNA; also called PFK-M1; source: PFK-deficient Saccharomyces cerevisiae, plasmid pJJH71, purified (nickel IMAC, Sephacryl S300 size exclusion)
With B1 the “stoichiometry N” value [2] was 4.

B2: Trypanosoma brucei phosphofructokinase (enzyme, T. b. brucei (strain Lister 427), UniProt O15648 1-487, looked up)
chain: MAVESRSRVTSKLVKAHRAMLNSVTQEDLKVDRLPGADYPNPSKKYSSRTEFRDKTDYIMYNPRPRDEPSSENPVSVSPLLCELAAARSRIHFNPTETTIGIVTCGGICPGLNDVIRSITLTGINVYNVKRVIGFRFGYWGLSKKGSQTAIELHRGRVTNIHHYGGTILGSSRGPQDPKEMVDTLERLGVNILFTVGGDGTQRGALVISQEAKRRGVDISVFGVPKTIDNDLSFSHRTFGFQTAVEKAVQAIRAAYAEAVSANYGVGVVKLMGRDSGFIAAQAAVASAQANICLVPENPISEQEVMSLLERRFCHSRSCVIIVAEGFGQDWGRGSGGYDASGNKKLIDIGVILTEKVKAFLKANKSRYPDSTVKYIDPSYMIRACPPSANDALFCATLATLAVHEAMAGATGCIIAMRHNNYILVPIKVATSVRRVLDLRGQLWRQVREITVDLGSDVRLARKLEIRRELEAINRNRDRLHEELAKL
notes: ATP-dependent phosphofructokinase of Trypanosoma brucei brucei, DNA source strain Lister 427, codon optimised for E. coli; Tag removal was only partially successful; the tagged protein was used for all experiments; also called TbPFK; T. brucei PFK; source: E. coli C41 (DE3), pET28a, purified (cobalt IMAC, Sephacryl S-200 gel filtration); not shown: His6, N-terminal, kept
For B2, the “stoichiometry N” value [3] was 4.

B3: human phosphofructokinase isoform PFK-L (enzyme, UniProt P17858 1-780, looked up)
chain: MAAVDLEKLRASGAGKAIGVLTSGGDAQGMNAAVRAVTRMGIYVGAKVFLIYEGYEGLVEGGENIKQANWLSVSNIIQLGGTIIGSARCKAFTTREGRRAAAYNLVQHGITNLCVIGGDGSLTGANIFRSEWGSLLEELVAEGKISETTARTYSHLNIAGLVGSIDNDFCGTDMTIGTDSALHRIMEVIDAITTTAQSHQRTFVLEVMGRHCGYLALVSALASGADWLFIPEAPPEDGWENFMCERLGETRSRGSRLNIIIIAEGAIDRNGKPISSSYVKDLVVQRLGFDTRVTVLGHVQRGGTPSAFDRILSSKMGMEAVMALLEATPDTPACVVTLSGNQSVRLPLMECVQMTKEVQKAMDDKRFDEATQLRGGSFENNWNIYKLLAHQKPPKEKSNFSLAILNVGAPAAGMNAAVRSAVRTGISHGHTVYVVHDGFEGLAKGQVQEVGWHDVAGWLGRGGSMLGTKRTLPKGQLESIVENIRIYGIHALLVVGGFEAYEGVLQLVEARGRYEELCIVMCVIPATISNNVPGTDFSLGSDTAVNAAMESCDRIKQSASGTKRRVFIVETMGGYCGYLATVTGIAVGADAAYVFEDPFNIHDLKVNVEHMTEKMKTDIQRGLVLRNEKCHDYYTTEFLYNLYSSEGKGVFDCRTNVLGHLQQGGAPTPFDRNYGTKLGVKAMLWLSEKLREVYRKGRVFANAPDSACVIGLKKKAVAFSPVTELKKDTDFEHRMPREQWWLSLRLMLKMLAQYRISMAAYVSGELEHVTRRTLSMDKGF
notes: human ATP-dependent phosphofructokinase, liver type (PFK-L1), yeast codon optimised cDNA; also called PFK-L1; source: PFK-deficient Saccharomyces cerevisiae, plasmid pJJH71, purified (nickel IMAC, Superose 6 size exclusion)
In the case of B3, the “stoichiometry N” value [4] is reported as 4.

B4: human phosphofructokinase isoform PFK-P (enzyme, UniProt Q01813 1-784, looked up)
chain: MDADDSRAPKGSLRKFLEHLSGAGKAIGVLTSGGDAQGMNAAVRAVVRMGIYVGAKVYFIYEGYQGMVDGGSNIAEADWESVSSILQVGGTIIGSARCQAFRTREGRLKAACNLLQRGITNLCVIGGDGSLTGANLFRKEWSGLLEELARNGQIDKEAVQKYAYLNVVGMVGSIDNDFCGTDMTIGTDSALHRIIEVVDAIMTTAQSHQRTFVLEVMGRHCGYLALVSALACGADWVFLPESPPEEGWEEQMCVKLSENRARKKRLNIIIVAEGAIDTQNKPITSEKIKELVVTQLGYDTRVTILGHVQRGGTPSAFDRILASRMGVEAVIALLEATPDTPACVVSLNGNHAVRLPLMECVQMTQDVQKAMDERRFQDAVRLRGRSFAGNLNTYKRLAIKLPDDQIPKTNCNVAVINVGAPAAGMNAAVRSAVRVGIADGHRMLAIYDGFDGFAKGQIKEIGWTDVGGWTGQGGSILGTKRVLPGKYLEEIATQMRTHSINALLIIGGFEAYLGLLELSAAREKHEEFCVPMVMVPATVSNNVPGSDFSIGADTALNTITDTCDRIKQSASGTKRRVFIIETMGGYCGYLANMGGLAAGADAAYIFEEPFDIRDLQSNVEHLTEKMKTTIQRGLVLRNESCSENYTTDFIYQLYSEEGKGVFDCRKNVLGHMQQGGAPSPFDRNFGTKISARAMEWITAKLKEARGRGKKFTTDDSICVLGISKRNVIFQPVAELKKQTDFEHRIPKEQWWLKLRPLMKILAKYKASYDVSDSGQLEHVQPWSV
notes: human ATP-dependent phosphofructokinase, platelet type (PFK-P1), yeast codon optimised cDNA; also called PFK-P1; source: PFK-deficient Saccharomyces cerevisiae, plasmid pJJH71, purified (nickel IMAC, Superose 6 size exclusion)
With B4 the “stoichiometry N” value [4] was 4.
